Source: patent EP2658867B1 (Avidbiotics Corp., dated 2018)
Where two headings read alike, the source gives them in different places.

Assays:
Test in all cases: ELISA, integrin coated, anti-MICA-HRP
integrin αVβ3 [1] = biological target: T1, integrin αVβ3 (UniProt P06756 31-992; P05106 27-718)
T1 construct: Coated on the ELISA plate

integrin αVβ5 [2] = biological target: T2, integrin αVβ5 (UniProt P06756 31-992; P18084 24-719)
T2 construct: Coated on the ELISA plate

integrin αVβ3 [3] = biological target: T1, integrin αVβ3; remark: listed apart in the source
integrin αVβ5 [4] = biological target: T2, integrin αVβ5; remark: listed apart in the source

T1 sequence (P06756 31-992, chain 1 of 2): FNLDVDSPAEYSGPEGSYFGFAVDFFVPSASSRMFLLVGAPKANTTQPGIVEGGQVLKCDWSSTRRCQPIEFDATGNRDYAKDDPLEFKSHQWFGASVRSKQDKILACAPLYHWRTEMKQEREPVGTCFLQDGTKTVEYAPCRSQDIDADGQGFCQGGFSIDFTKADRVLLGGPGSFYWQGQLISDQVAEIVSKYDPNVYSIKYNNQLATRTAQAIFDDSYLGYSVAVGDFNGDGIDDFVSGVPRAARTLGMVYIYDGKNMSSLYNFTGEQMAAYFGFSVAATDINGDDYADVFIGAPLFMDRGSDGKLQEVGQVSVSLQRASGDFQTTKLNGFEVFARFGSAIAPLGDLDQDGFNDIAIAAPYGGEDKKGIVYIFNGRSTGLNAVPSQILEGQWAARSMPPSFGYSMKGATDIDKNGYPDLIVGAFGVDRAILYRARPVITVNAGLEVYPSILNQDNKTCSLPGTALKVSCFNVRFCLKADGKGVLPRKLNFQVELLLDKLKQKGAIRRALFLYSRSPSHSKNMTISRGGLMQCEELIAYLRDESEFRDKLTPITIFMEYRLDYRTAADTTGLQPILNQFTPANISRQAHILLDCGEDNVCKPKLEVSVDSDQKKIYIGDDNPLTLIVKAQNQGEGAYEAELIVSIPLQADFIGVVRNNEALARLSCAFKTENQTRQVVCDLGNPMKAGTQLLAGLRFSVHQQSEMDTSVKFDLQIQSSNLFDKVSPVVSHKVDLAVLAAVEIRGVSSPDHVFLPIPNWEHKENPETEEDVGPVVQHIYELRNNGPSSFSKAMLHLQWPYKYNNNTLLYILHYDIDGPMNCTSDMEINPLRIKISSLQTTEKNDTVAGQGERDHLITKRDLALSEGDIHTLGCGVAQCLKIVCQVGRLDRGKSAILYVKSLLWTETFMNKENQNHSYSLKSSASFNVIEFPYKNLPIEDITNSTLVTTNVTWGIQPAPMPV
T1 sequence (P05106 27-718, chain 2 of 2): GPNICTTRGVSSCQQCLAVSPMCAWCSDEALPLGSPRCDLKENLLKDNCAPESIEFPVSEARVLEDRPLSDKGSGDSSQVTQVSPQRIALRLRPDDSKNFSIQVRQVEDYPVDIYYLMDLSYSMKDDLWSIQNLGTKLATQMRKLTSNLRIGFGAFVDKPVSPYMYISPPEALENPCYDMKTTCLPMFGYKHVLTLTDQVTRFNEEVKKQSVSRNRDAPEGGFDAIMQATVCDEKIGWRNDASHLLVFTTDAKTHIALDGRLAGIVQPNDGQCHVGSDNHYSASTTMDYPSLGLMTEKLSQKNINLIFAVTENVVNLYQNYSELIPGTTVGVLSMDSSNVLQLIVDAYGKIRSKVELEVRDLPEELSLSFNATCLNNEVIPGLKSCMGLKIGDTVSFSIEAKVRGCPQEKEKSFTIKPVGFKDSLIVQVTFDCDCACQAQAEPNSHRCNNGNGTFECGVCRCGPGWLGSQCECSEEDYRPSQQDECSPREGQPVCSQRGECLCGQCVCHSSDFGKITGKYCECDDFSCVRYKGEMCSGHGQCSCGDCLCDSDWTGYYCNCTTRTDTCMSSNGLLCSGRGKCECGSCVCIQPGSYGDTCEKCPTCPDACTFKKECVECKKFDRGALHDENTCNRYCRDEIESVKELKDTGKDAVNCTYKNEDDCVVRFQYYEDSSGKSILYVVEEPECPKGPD
T2 sequence (P06756 31-992, chain 1 of 2): as the sequence (P06756 31-992, chain 1 of 2) above
T2 sequence (P18084 24-719, chain 2 of 2): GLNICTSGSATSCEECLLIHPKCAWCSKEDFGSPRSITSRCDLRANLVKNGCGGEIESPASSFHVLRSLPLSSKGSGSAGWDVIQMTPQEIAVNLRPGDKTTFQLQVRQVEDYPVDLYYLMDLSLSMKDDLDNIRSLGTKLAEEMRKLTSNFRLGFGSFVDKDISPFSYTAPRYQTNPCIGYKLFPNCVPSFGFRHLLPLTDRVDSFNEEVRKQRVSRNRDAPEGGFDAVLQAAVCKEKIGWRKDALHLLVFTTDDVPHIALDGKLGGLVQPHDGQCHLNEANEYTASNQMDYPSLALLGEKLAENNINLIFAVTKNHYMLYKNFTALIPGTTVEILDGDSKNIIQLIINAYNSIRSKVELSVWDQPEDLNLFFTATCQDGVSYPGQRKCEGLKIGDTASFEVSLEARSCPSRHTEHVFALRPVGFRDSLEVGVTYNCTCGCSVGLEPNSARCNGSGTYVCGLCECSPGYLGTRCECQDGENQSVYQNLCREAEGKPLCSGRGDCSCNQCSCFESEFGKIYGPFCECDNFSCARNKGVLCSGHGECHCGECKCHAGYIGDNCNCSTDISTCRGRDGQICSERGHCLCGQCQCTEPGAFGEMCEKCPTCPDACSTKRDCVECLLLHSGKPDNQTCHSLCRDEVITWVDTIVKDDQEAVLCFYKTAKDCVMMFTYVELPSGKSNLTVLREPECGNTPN

- signal (integrin αVβ3 [1]): 0.384 OD
- signal/ng (integrin αVβ3 [1]): 9.2 signal/ng
- signal (integrin αVβ5 [2]): 1.06 OD
- signal/ng (integrin αVβ5 [2]): 25.5 signal/ng
- signal (integrin αVβ3 [3]): 0.467 OD
- signal/ng (integrin αVβ3 [3]): 9.42 signal/ng
- signal (integrin αVβ5 [4]): 0.66 OD
- signal/ng (integrin αVβ5 [4]): 13.3 signal/ng
B1: soluble MICA generated by pKK46 (extended loop 5.1sp in loop 1) (designed binder)
chain: HHHHHHEPHSLRYNLTVLSWDGSVQSGFLTEVHLDGQPFLRCDRQKCRAKPQGQWAEDVLGNKTWDRETRDLTGNGKDLRMTLAHIKDQKEGLHSLQEIRVCEIHEDNSTRSSQHFYYDGELFLSQNLETEEWTMPQSSRAQTLAMNVRNFLKEDAMKTKTHYHAMHADCLQELRRYLKSGVVLRRTVPPMVNVTSGGSGGGSVTRGDTFTQSSGGSGGGVTCRASGFYPWNITLSWRQDGVSLSHDTQQWGDVLPDGNGTYQTWVATRICQGEEQRFTCYMEHSGNHSTHPVPSGK
